Source: article PMC12313985

Legend:
[1] = biological target: PKA-phosphorylated full-length human Tau (PKA-Tau) (human) (UniProt P10636)
[2] = biological target: Fluorescein (FITC)-labelled bi-phospho Tau peptide pS2 (Tau^210–222-…-Tau^318–331) (human); assay: fluorescence polarisation; 14-3-3ζ titrated (twofold series from 400 μM) into 10 nM fluorescein-labelled peptide; 10 mM HEPES pH 7.4, 150 mM NaCl, 50 µM TCEP, 0.1% Tween20, 0.1% BSA; room temperature; 4PL fit
Chain of Fluorescein (FITC)-labelled bi-phospho Tau peptide pS2 (Tau^210–222-…-Tau^318–331) (human) (peptide, as listed by the source): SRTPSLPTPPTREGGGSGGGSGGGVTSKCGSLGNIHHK

Chain of PKA-phosphorylated full-length human Tau (PKA-Tau) (human) (P10636 other isoform, or with tags, fused parts or gaps): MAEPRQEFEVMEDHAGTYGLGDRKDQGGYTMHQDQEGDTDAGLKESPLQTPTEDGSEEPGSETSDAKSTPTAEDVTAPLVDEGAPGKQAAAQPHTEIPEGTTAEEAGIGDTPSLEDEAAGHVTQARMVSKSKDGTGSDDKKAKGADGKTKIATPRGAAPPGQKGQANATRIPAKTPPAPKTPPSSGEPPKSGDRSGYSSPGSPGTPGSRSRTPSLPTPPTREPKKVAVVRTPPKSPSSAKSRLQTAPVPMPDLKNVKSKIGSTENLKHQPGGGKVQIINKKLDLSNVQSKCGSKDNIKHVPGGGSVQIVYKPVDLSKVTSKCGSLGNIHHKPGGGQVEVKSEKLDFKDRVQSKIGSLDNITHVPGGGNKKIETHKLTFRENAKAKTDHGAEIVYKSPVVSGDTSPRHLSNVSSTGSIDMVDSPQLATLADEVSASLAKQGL

FRAP mobile fractions in PKA-Tau:14-3-3ζ condensates [1]: 50% | Kd [2]: 1 µM
Substance: 14-3-3 protein zeta (14-3-3ζ) (from UniProt P63104 1-245) (natural protein)
